From patent US20220073646A1 (Hoffmann-La Roche, published 2022)
Substitutions are numbered along the chain they refer to. Names and notes keep the numbering of the source. Values belong to the binder of their own block, whether it stands above or below them.

Columns and labels:
[1] = target: T1, recombinant human 4-1BB Fc(kih) (human, UniProt P0DOX5 223-449 = IgG part, biotin on C-terminal Avi tag where used biotinylated); assay: SPR, captured IgG, 4-1BB Fc(kih) analyte
T1 construct: also called hu4-1BB; biotinylated human 4-1BB
Experimental: (§1) All SPR experiments were performed on a Biacore T200 at 25° C. with HBS-EP as running buffer (0.01 M HEPES pH 7.4, 0.15 M NaCl, 3 mM EDTA, 0.005% Surfactant P20, Biacore, Freiburg/Germany).
Anti-human Fab antibody (Biacore, Freiburg/Germany) was directly coupled on a CM5 chip at pH 5.0 using the standard amine coupling kit (Biacore, Freiburg/Germany). The immobilization level was approximately 7500 RU. […] The dissociation was monitored for 120 seconds. Bulk refractive index differences were corrected for by subtracting the response obtained on reference flow cell.

human 4-1BB on cells [2] = target: T2, human 4-1BB on cells (human, UniProt Q07011 24-255); assay: cell-based or functional assay
[3] = target: T3, mouse 4-1BB on activated mouse splenocytes (mouse, UniProt P20334 24-256); assay: flow cytometry, activated mouse T cells
T3 sequence (P20334 24-256 limits assumed): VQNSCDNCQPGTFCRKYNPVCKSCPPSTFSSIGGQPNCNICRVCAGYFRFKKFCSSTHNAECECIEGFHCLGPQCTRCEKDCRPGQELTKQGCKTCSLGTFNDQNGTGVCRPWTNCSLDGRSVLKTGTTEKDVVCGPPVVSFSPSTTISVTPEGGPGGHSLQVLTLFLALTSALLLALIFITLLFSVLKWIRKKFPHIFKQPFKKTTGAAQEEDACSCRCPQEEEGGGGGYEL
Experimental: (§2) Cells were incubated for 30 min at 4° C., washed twice with 200 μL/well FACS-buffer and resuspended for fixation with 50 μL/well DPBS containing 1% (v/v) formaldehyde. The next day cells were resuspended in 200 μL/well FACS buffer and acquired using the 2-laser Cantoll (BD Bioscience with DIVA software) or 5-laser Fortessa (BD Bioscience with DIVA software). Gates were set on CD8⁺ and CD4⁺ T cells and the median fluorescence intensity (MFI) of the secondary detection antibody was used to analyze binding of primary antibodies. Using Graph Pad Prism (Graph Pad Software Inc.) data was baselined by subtracting the blank values (no primary antibody added) and the EC₅₀ values were calculated using non-linear regression curve fit (robust fit).

[4] = target: T4, cynomolgus 4-1BB on activated cynomolgus PBMC (cynomolgus, UniProt Q07011 24-255 (human entry)); assay: flow cytometry, activated cynomolgus CD4 T cells
T4 chain: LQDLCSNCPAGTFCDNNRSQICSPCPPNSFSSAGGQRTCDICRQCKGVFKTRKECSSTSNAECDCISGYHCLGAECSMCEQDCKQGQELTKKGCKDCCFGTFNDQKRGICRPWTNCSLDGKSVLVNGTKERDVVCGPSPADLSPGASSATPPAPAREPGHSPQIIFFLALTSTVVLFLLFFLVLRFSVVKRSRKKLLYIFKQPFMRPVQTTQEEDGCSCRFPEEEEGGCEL
Experimental: (§3) Cells were washed twice with FACS buffer and resuspended in 100 μL/well FACS buffer supplied with 0.2 μg/mL DAPI to discriminated dead from living cells. Cells were immediately acquired using a 5-laser Fortessa (BD Bioscience with DIVA software). Gates were set on CD8⁺ and CD4⁺ T cells and the median fluorescence intensity (MFI) of the secondary detection antibody was used to analyze binding of primary antibodies. Using Graph Pad Prism (Graph Pad Software Inc.) data was baselined by subtracting the blank values (no primary antibody added) and the EC₅₀ values were calculated using non-linear regression curve fit (robust fit).

human 4-1BB on cells [5] = target: T2, human 4-1BB on cells; assay: flow cytometry, activated human CD8 T cells
Experimental: Plates were centrifuged 4 minutes with 400×g at 4° C. and supernatant was discarded. […] Afterwards cells were washed once with 200 μL/well cold FACS buffer (DPBS supplied with 2% (v/v) FBS, 5 mM EDTA pH8 (Amresco, Cat. No. E177) and 7.5 mM sodium azide (Sigma-Aldrich S2002)). […] Cells were washed four times with 200 μL/well 4° C.
Cells were washed twice with 200 μL FACS buffer/well and fixated by resuspending in 50 μL/well DPBS containing 1% Formaldehyde (Sigma, HT501320-9.5L). Cells were acquired the same or next day using a 3-laser Canto II (BD Bioscience with DIVA software) or a 5-laser Fortessa (BD Bioscience with DIVA software) or 3-laser MACSQuant Analyzer 10 (Miltenyi Biotech). Gates were set on CD8⁺ and CD4⁺ T cells and the median fluorescence intensity (MFI) or geo mean of fluorescence intensity of the secondary detection antibody was used to analyze binding of primary antibodies. Using Graph Pad Prism (Graph Pad Software Inc.) data was baselined by subtracting the blank values (no primary antibody added) and the EC50 values were calculated using non-linear regression curve fit (robust fit).

[6] = target: recombinant cynomolgus 4-1BB Fc(kih) (cynomolgus, UniProt P0DOX5 223-449 = IgG part, biotin on C-terminal Avi tag where used biotinylated); assay: SPR, captured IgG, cyno 4-1BB Fc(kih) analyte
Experimental: as §1
Anti-human Fab antibody (Biacore, Freiburg/Germany) was directly coupled on a CM5 chip at pH 5.0 using the standard amine coupling kit (Biacore, Freiburg/Germany). The immobilization level was approximately 9000 RU.

[7] = target: T4, cynomolgus 4-1BB on activated …; assay: flow cytometry, activated cynomolgus CD8 T cells
Experimental: as §3

[8] = target: T3, mouse 4-1BB on activated mouse …; assay: flow cytometry, activated murine CD8 T cells
Experimental: as §2

[9] = target: T3, mouse 4-1BB on activated mouse …; assay: flow cytometry, activated murine CD4 T cells
Experimental: as §2

[10] = target: T5, human GITR on HEK cells (HEK-GITR) (human, UniProt Q9Y5U5 26-241); assay: flow cytometry, HEK-GITR
T5 construct: also called cell surface expressed human GITR
T5 sequence: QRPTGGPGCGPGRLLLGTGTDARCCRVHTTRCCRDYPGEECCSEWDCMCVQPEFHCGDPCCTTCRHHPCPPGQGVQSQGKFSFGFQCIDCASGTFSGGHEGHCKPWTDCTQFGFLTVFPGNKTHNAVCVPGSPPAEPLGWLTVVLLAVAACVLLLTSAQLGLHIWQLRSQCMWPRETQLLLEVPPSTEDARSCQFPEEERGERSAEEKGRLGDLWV
Experimental: Cells were washed twice with complete media and once with PBS+2% FBS before adjusting cell density to 1×10⁷ cells/mL in PBS+2% FBS.
Plates were centrifuged at 4° C., 3 minutes at 600×g and supernatant was flicked off. Cells were resuspended in 50 μL/well of 4° C. cold PBS+2% FBS containing titrated anti-GITR antibody constructs for 120 minutes at 4° C. Plates were washed twice with 200 μL/well 4° C. PBS+2% FBS to remove unbound construct. […] Plates were centrifuged at 4° C. for 3 minutes at 600×g and washed twice with PBS+2% FBS. […] Plates were centrifuged at 4° C., 3 minutes at 600×g and supernatant was flicked off.

[11] = target: T6, murine FAP (His-tagged ectodomain) (mouse, UniProt P97321 27-761); assay: SPR, FAP captured via anti-His, 1:1 fit, apparent KD (bivalent)
T6 construct: also called mu FAP
Experimental: The capacity of the bispecific constructs to bind human, murine and cynomolgus FAP was assessed by surface plasmon resonance (SPR). All SPR experiments were performed on a Biacore T200 (Biacore) at 25° C. with HBS-EP as running buffer (0.01 M HEPES pH 7.4, 0.15 M NaCl, 3 mM EDTA, 0.005% Surfactant P20, (Biacore).
Immobilization levels for the anti-His antibody of up to 18000 resonance units (RU) were used.
Following the capture step, the bispecific constructs as well as control molecules were immediately passed over the chip surface at a concentration ranging from 0.006-100 nM with a flow rate of 30 μL/minute for 280 s and a dissociation phase of 180 s. Bulk refractive index differences were corrected for by subtracting the response obtained in a reference flow cell, where no FAP was immobilized. Affinity was determined using the Langmuir 1:1 curve fitting. For bivalent binding the same 1:1 fitting was used leading to an apparent KD value.

[12] = target: T7, human fibroblast activation protein (huFAP) on cells (human, UniProt Q12884 1-760); assay: flow cytometry, WM266-4
T7 construct: also called NIH/3T3-huFAP clone 39; NIH/3T3-huFAP clone 19

human 4-1BB on cells [13] = target: T2, human 4-1BB on cells; assay: cell-based or functional assay; remark: listed apart in the source
human OX40 on cells = target: T8, human OX40 on cells (human, UniProt P43489 29-277); assay: flow cytometry, activated human CD4 T cells
T8 sequence: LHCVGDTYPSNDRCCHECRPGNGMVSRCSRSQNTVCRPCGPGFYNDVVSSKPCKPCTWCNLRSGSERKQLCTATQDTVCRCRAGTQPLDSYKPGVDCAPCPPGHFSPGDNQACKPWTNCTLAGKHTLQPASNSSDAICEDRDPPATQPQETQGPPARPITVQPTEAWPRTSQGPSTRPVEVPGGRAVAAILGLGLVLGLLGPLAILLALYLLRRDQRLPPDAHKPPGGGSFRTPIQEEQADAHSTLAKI

EC50 [8]: 18.5 nM | EC50 [9]: 9.92 nM
B3: 20G2 mu IgG1 κ wt (antibody, V domains shown)
VH: QVQLVQSGAEVKKPGSSVKVSCKASGGTFSSYAISWVRQAPGQGLEWMGGIIPIFGTANYAQKFQGRVTITADKSTSTAYMELSSLRSEDTAVYYCARSYYWESYPFDYWGQGTTVTVSS
VL: DIQMTQSPSTLSASVGDRVTITCRASQSISSWLAWYQQKPGKAPKLLIYDASSLESGVPSRFSGSGSGTEFTLTISSLQPDDFATYYCQQQHSYYTFGQGTKVEIK
notes: mouse IgG1 kappa wild type; also called 20G2 mouse IgG1 wildtype

Kd [1]: 34 nM | koff [1]: 0.00099 s⁻¹ | kon [1]: 29000 M⁻¹ s⁻¹ | EC50 of increase of IFNγ secretion in activated CD8+ T cells (surface-immobilized IgG) (human 4-1BB on cells [2]): 0.12 nM | binding result [3]: no binding | EC50 [4]: 6.68 nM | EC50 (human 4-1BB on cells [5]): 29 nM | Kd [6]: 17 nM | koff [6]: 0.00046 s⁻¹ | kon [6]: 27000 M⁻¹ s⁻¹ | EC50 [7]: 4.52 nM
B4: 25G7 P329GLALA IgG1 (antibody, V domains shown)
VH: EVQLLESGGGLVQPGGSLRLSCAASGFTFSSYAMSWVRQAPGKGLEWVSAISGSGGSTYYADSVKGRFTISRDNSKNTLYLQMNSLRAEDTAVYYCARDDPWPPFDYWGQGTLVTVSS
VL: SSELTQDPAVSVALGQTVRITCQGDSLRSYYASWYQQKPGQAPVLVIYGKNNRPSGIPDRFSGSSSGNTASLTITGAQAEDEADYYCNSLDRRGMWVFGGGTKLTVLG
notes: anti-4-1BB; also called 25G7 IgG

Kd [11]: 0.00441 nM | EC50 [12]: 5.51 nM
B7: OX40(49B4)/FAP(28H1) P329GLALA IgG1 4+2 (bispecific antibody)
heavy: not shown
light 1: DIQMTQSPSTLSASVGDRVTITCRASQSISSWLAWYQQKPGKAPKLLIYDASSLESGVPSRFSGSGSGTEFTLTISSLQPDDFATYYCQQYSSQPYTFGQGTKVEIKRTVAAPSVFIFPPSDRKLKSGTASVVCLLNNFYPREAKVQWKVDNALQSGNSQESVTEQDSKDSTYSLSSTLTLSKADYEKHKVYACEVTHQGLSSPVTKSFNRGEC
light 2: EVQLLESGGGLVQPGGSLRLSCAASGFTFSSHAMSWVRQAPGKGLEWVSAIWASGEQYYADSVKGRFTISRDNSKNTLYLQMNSLRAEDTAVYYCAKGWLGNFDYWGQGTLVTVSSASVAAPSVFIFPPSDEQLKSGTASVVCLLNNFYPREAKVQWKVDNALQSGNSQESVTEQDSKDSTYSLSSTLTLSKADYEKHKVYACEVTHQGLSSPVTKSFNRGEC
notes: also called 4+2 (49B4/28H1)

EC50 of NFκB/luciferase activation, 4-1BB reporter HeLa with NIH/3T3-huFAP clone 19 (human 4-1BB on cells [13]): 3.2 nM
B8: 25G7/FAP P329GLALA IgG1 1+1 (bispecific antibody)
heavy 1: not shown
light 1: SSELTQDPAVSVALGQTVRITCQGDSLRSYYASWYQQKPGQAPVLVIYGKNNRPSGIPDRFSGSSSGNTASLTITGAQAEDEADYYCNSLDRRGMWVFGGGTKLTVLGQPKAAPSVTLFPPSSEELQANKATLVCLISDFYPGAVTVAWKADSSPVKAGVETTTPSKQSNNKYAASSYLSLTPEQWKSHRSYSCQVTHEGSTVEKTVAPTECS
heavy 2: EVQLLESGGGLVQPGGSLRLSCAASGFTFSSHAMSWVRQAPGKGLEWVSAIWASGEQYYADSVKGRFTISRDNSKNTLYLQMNSLRAEDTAVYYCAKGWLGNFDYWGQGTLVTVSSASVAAPSVFIFPPSDEQLKSGTASVVCLLNNFYPREAKVQWKVDNALQSGNSQESVTEQDSKDSTYSLSSTLTLSKADYEKHKVYACEVTHQGLSSPVTKSFNRGECDKTHTCPPCPAPEAAGGPSVFLFPPKPKDTLMISRTPEVTCVVVDVSHEDPEVKFNWYVDGVEVHNAKTKPREEQYNSTYRVVSVLTVLHQDWLNGKEYKCKVSNKALGAPIEKTISKAKGQPREPQVCTLPPSRDELTKNQVSLSCAVKGFYPSDIAVEWESNGQPENNYKTTPPVLDSDGSFFLVSKLTVDKSRWQQGNVFSCSVMHEALHNHYTQKSLSLSPGK
light 2: EIVLTQSPGTLSLSPGERATLSCRASQSVSRSYLAWYQQKPGQAPRLLIIGASTRATGIPDRFSGSGSGTDFTLTISRLEPEDFAVYYCQQGQVIPPTFGQGTKVEIKSSASTKGPSVFPLAPSSKSTSGGTAALGCLVKDYFPEPVTVSWNSGALTSGVHTFPAVLQSSGLYSLSSVVTVPSSSLGTQTYICNVNHKPSNTKVDKKVEPKSCD

EC50 of NFκB/luciferase activation, 4-1BB reporter HeLa with NIH/3T3-huFAP clone 19 (human 4-1BB on cells [13]): 0.1 nM | EC50 of NFκB/luciferase activation, 4-1BB reporter HeLa with WM-266-4 (human 4-1BB on cells [13]): 0.3 nM
B9: 4-1BB(25G7)/FAP(4B9) 2+1 (bispecific antibody, human IgG1, lambda, L234A L235A)
heavy 1: not shown
heavy 2: not shown
light: B8 light 1

EC50 of NFκB/luciferase activation, 4-1BB reporter HeLa with NIH/3T3-huFAP clone 19 (human 4-1BB on cells [13]): 0.05 nM
B12: 25G7/FAP P329GLALA IgG1 2+2 (bispecific antibody)
heavy: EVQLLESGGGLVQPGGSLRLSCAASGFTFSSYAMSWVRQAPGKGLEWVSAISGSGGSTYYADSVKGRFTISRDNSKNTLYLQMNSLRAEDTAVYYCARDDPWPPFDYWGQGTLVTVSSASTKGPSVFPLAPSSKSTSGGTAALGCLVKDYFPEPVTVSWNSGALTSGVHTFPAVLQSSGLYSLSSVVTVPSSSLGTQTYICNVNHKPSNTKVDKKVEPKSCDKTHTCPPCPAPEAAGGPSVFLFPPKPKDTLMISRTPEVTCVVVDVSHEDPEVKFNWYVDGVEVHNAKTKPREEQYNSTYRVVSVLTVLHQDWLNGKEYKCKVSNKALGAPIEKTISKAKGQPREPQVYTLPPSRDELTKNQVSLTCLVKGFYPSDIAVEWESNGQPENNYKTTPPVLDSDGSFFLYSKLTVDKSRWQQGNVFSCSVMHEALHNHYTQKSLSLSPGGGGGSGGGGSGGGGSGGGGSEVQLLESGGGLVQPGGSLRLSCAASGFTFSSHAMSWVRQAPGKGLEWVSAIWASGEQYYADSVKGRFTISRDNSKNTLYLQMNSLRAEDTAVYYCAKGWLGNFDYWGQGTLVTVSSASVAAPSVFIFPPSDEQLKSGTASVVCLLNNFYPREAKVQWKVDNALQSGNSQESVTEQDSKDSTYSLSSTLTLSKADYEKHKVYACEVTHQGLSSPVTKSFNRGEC
light 1: B8 light 1
light 2: B8 light 2

EC50 of NFκB/luciferase activation, 4-1BB reporter HeLa with NIH/3T3-huFAP clone 19 (human 4-1BB on cells [13]): 0.04 nM | EC50 of NFκB/luciferase activation, 4-1BB reporter HeLa with WM-266-4 (human 4-1BB on cells [13]): 0.2 nM
B13: 4-1BB(25G7)/FAP(4B9) 4+1 (bispecific antibody, human IgG1, lambda, L234A L235A)
heavy 1: not shown
heavy 2: not shown
light: B8 light 1

EC50 (human OX40 on cells): 9.37 nM
B14: 1G4/FAP P329GLALA IgG1 2+2 (bispecific antibody)
heavy: not shown
light 1: not shown
light 2: B8 light 2
notes: also called 1G4 FAP 2+2

The remaining lines, values behind:

B1: 11D5 P329GLALA IgG1 (antibody, V domains shown)
VH: QVQLVQSGAEVKKPGSSVKVSCKASGGTFSSYAISWVRQAPGQGLEWMGGIIPIFGTANYAQKFQGRVTITADKSTSTAYMELSSLRSEDTAVYYCARSTLIYGYFDYWGQGTTVTVSS
VL: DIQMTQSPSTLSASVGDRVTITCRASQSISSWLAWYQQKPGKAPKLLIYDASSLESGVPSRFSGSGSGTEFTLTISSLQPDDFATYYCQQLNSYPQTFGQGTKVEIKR
notes: anti-4-1BB; also called 11D5 IgG
Kd [1]: 36 nM | koff [1]: 0.0012 s⁻¹ | kon [1]: 32000 M⁻¹ s⁻¹ | EC50 of increase of IFNγ secretion in activated CD8+ T cells (surface-immobilized IgG) (human 4-1BB on cells [2]): 0.06 nM | binding result [3]: no binding | EC50 [4]: 0.97 nM | EC50 (human 4-1BB on cells [5]): 1.46 nM | Kd [6]: 24 nM | koff [6]: 0.00077 s⁻¹ | kon [6]: 31000 M⁻¹ s⁻¹ | EC50 [7]: 1.04 nM

B2: 20G2 mu IgG1 κ DAPG (antibody, V domains shown)
VH: B3 VH
VL: B3 VL
notes: mouse IgG1 kappa with DAPG mutations; also called 20G2 mouse IgG1 DAPG
EC50 [8]: 17.9 nM | EC50 [9]: 11.2 nM

B5: (GITR-DP47) [8A06] 4+1 construct with charged residues (bispecific antibody, V domains shown)
VH: QVQLVQSGAEVKKPGSSVKVSCKASGGTFSSYAISWVRQAPGQGLEWMGGIIPIFGTANYAQKFQGRVTITADKSTSTAYMELSSLRSEDTAVYYCARGYYAIDYWGQGTTVTVSS
VL: SSELTQDPAVSVALGQTVRITCQGDSLRSYYASWYQQKPGQAPVLVIYGKNNRPSGIPDRFSGSSSGNTASLTITGAQAEDEADYYCNSPQTSGSAVFGGGTKLTVL
EC50 [10]: 1.92 nM

B6: (GITR-FAP) [8A06] 4+2 construct with charged residues (bispecific antibody, V domains shown)
VH 1: B5 VH
VL 1: B5 VL
VH 2: EVQLLESGGGLVQPGGSLRLSCAASGFTFSSHAMSWVRQAPGKGLEWVSAIWASGEQYYADSVKGRFTISRDNSKNTLYLQMNSLRAEDTAVYYCAKGWLGNFDYWGQGTLVTVSS
VL 2: EIVLTQSPGTLSLSPGERATLSCRASQSVSRSYLAWYQQKPGQAPRLLIIGASTRATGIPDRFSGSGSGTDFTLTISRLEPEDFAVYYCQQGQVIPPTFGQGTKVEIK
notes: human IgG1 P329G LALA; also called 4+2 CR
EC50 [10]: 2.06 nM

B10: 49B4/FAP P329GLALA IgG1 2+2 (bispecific antibody)
heavy: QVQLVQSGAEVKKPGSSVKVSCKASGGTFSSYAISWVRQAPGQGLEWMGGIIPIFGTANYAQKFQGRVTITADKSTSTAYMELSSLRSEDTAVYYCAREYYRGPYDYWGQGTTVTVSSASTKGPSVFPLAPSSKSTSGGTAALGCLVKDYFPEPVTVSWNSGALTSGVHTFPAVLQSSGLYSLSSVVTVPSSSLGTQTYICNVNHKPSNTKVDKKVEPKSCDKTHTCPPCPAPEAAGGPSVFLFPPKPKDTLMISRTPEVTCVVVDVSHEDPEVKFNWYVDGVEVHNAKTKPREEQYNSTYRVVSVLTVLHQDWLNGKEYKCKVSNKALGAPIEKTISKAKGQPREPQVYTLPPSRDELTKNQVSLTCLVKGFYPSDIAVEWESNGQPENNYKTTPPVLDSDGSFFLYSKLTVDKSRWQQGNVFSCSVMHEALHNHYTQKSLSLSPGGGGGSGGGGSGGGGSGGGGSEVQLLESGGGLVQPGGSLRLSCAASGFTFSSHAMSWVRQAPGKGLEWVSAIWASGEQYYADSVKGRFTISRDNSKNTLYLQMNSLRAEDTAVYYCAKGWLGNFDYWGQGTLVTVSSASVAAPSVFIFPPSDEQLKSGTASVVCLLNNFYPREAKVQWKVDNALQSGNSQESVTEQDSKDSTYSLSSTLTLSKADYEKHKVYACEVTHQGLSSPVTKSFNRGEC
light 1: B7 light 1 with R123E, K124Q
light 2: B8 light 2
notes: also called 2+2 (49B4/28H1); bispecific bivalent 2+2 construct 49B4
EC50 [12]: 1.31 nM

B11: 11D5/FAP P329GLALA IgG1 2+2 (bispecific antibody)
heavy: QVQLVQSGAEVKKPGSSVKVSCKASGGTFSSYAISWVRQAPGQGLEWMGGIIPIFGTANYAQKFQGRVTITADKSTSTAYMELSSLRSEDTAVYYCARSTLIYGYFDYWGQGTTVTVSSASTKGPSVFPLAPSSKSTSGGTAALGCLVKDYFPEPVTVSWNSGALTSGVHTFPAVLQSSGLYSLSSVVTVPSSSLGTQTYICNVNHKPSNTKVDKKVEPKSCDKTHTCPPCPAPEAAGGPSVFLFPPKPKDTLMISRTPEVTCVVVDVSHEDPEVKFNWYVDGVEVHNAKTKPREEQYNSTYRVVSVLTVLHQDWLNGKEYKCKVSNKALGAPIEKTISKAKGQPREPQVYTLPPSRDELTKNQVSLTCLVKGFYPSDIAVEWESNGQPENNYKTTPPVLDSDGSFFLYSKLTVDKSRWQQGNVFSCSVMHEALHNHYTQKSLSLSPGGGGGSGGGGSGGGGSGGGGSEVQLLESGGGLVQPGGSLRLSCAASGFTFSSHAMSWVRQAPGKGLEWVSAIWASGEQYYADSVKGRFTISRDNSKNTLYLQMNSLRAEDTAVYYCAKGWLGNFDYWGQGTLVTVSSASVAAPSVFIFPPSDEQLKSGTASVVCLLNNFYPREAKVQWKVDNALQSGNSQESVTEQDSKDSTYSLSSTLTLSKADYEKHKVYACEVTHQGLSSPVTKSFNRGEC
light 1: not shown
light 2: B8 light 2
EC50 of NFκB/luciferase activation, 4-1BB reporter HeLa with NIH/3T3-huFAP clone 19 (human 4-1BB on cells [13]): 0.05 nM
